Assay results from the supplement of paper PMC10724198.
± gives the standard deviation of the averaged measurements.

System: Saccharomyces cerevisiae
Assay: protein stability index of tFT-peptide fusion (C-terminal peptide) (PSI (0-1 scale)); higher = more stable (slower turnover)
Settings: temperature: 30 C
Method: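 MPS profiling in S. cerevisiae of the yeast C-terminome library: the last 12 aa of each annotated ORF are fused to the C-terminus of a sfGFP-mCherry timer, after a GGGS linker. Cells are FACS-sorted into 8 mCherry/sfGFP bins and deep-sequenced. PSI runs from 0 (unstable) to 1 (stable); wild type and das1Δ backgrounds, two technical replicates each.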

[1] = genetic background: das1 deletion

DSDLFFVAEAIS [YIL032C C-terminal 12 aa]
protein stability index [1]: 0.7373 ± 0.0022
protein stability index (genetic background: wild type): 0.703 ± 0.022

IAIGFGVGITRE [BUD8 C-terminal 12 aa]
protein stability index [1]: 0.688 ± 0.035
protein stability index (genetic background: wild type): 0.739 ± 0.022

PVHLEAIDLIDC [HSP150 C-terminal 12 aa]
protein stability index [1]: 0.7087 ± 0.0034
protein stability index (genetic background: wild type): 0.714 ± 0.024

KGGLEGWVKSQL [LYS4 C-terminal 12 aa]
protein stability index [1]: 0.808 ± 0.018
protein stability index (genetic background: wild type): 0.811 ± 0.074

PQGFEIIELLNF [ROM1 C-terminal 12 aa]
protein stability index [1]: 0.717 ± 0.044
protein stability index (genetic background: wild type): 0.718 ± 0.013

GRVHGEEDPTKK [HSP12 C-terminal 12 aa]
protein stability index [1]: 0.707 ± 0.024
protein stability index (genetic background: wild type): 0.6953 ± 0.0032

IRCVFMFRTNAK [YLR296W C-terminal 12 aa]
protein stability index [1]: 0.578 ± 0.03
protein stability index (genetic background: wild type): 0.595 ± 0.018

TVGIHSPIDEKC [ATG4 C-terminal 12 aa]
protein stability index [1]: 0.699 ± 0.013
protein stability index (genetic background: wild type): 0.669 ± 0.015

KNRYLHLLEQHK [BET4 C-terminal 12 aa]
protein stability index [1]: 0.692 ± 0.018
protein stability index (genetic background: wild type): 0.67 ± 0.04

DDGIATYNNTQG [KNS1 C-terminal 12 aa]
protein stability index [1]: 0.693 ± 0.03
protein stability index (genetic background: wild type): 0.72 ± 0.027

ERPIVASTSPIA [TPH3 C-terminal 12 aa]
protein stability index [1]: 0.71247 ± 4.2e-05
protein stability index (genetic background: wild type): 0.681 ± 0.0089

EDLDADGDHKLV [TUB4 C-terminal 12 aa]
protein stability index [1]: 0.6839 ± 0.0032
protein stability index (genetic background: wild type): 0.672 ± 0.0083

EEHHFYREHIFT [OCA4 C-terminal 12 aa]
protein stability index [1]: 0.7231 ± 0.0018
protein stability index (genetic background: wild type): 0.7118 ± 0.0058

ASNGSIFQFSSP [REC104 C-terminal 12 aa]
protein stability index [1]: 0.692 ± 0.023
protein stability index (genetic background: wild type): 0.718 ± 0.01

ALGEHYNSLHDS [OTU2 C-terminal 12 aa]
protein stability index [1]: 0.7 ± 0.016
protein stability index (genetic background: wild type): 0.653 ± 0.0071

DESVDMNVGISY [YCL046W C-terminal 12 aa]
protein stability index [1]: 0.721 ± 0.0092
protein stability index (genetic background: wild type): 0.718 ± 0.035

KVLACYEEIDDY [UBC11 C-terminal 12 aa]
protein stability index [1]: 0.679 ± 0.0098
protein stability index (genetic background: wild type): 0.712 ± 0.059

ELKKRFDALRRK [IST1 C-terminal 12 aa]
protein stability index [1]: 0.686 ± 0.015
protein stability index (genetic background: wild type): 0.647 ± 0.0071

PNVSYIEEKLNQ [MAS1 C-terminal 12 aa]
protein stability index [1]: 0.702 ± 0.015
protein stability index (genetic background: wild type): 0.717 ± 0.011

DGYPKDNEDIDP [MAL13 C-terminal 12 aa]
protein stability index [1]: 0.70018 ± 0.0004
protein stability index (genetic background: wild type): 0.708 ± 0.043

EETEKKLKNLKL [YRB30 C-terminal 12 aa]
protein stability index [1]: 0.703 ± 0.029
protein stability index (genetic background: wild type): 0.684 ± 0.037

PRSDDEDDEDSE [FAP7 C-terminal 12 aa]
protein stability index [1]: 0.683 ± 0.026
protein stability index (genetic background: wild type): 0.671 ± 0.025

RAVTPTGKKGRN [YOR296W C-terminal 12 aa]
protein stability index [1]: 0.675 ± 0.035
protein stability index (genetic background: wild type): 0.6578 ± 0.0052

AVFYIFETLSAL [ORT1 C-terminal 12 aa]
protein stability index [1]: 0.653 ± 0.015
protein stability index (genetic background: wild type): 0.654 ± 0.0084

LNEPKDSAENKI [SRC1 C-terminal 12 aa]
protein stability index [1]: 0.6958 ± 0.0062
protein stability index (genetic background: wild type): 0.659 ± 0.026

SLVKTHNSSLCK [IAI11 C-terminal 12 aa]
protein stability index [1]: 0.663 ± 0.026
protein stability index (genetic background: wild type): 0.689 ± 0.095

TVDYIASNPDAN [ACP1 C-terminal 12 aa]
protein stability index [1]: 0.696 ± 0.0025
protein stability index (genetic background: wild type): 0.736 ± 0.038

VLELSLGFTKLD [MON2 C-terminal 12 aa]
protein stability index [1]: 0.7141 ± 0.0071
protein stability index (genetic background: wild type): 0.707 ± 0.041

NKKPKNKKKGRK [SRP72 C-terminal 12 aa]
protein stability index [1]: 0.6842 ± 0.005
protein stability index (genetic background: wild type): 0.646 ± 0.0076

YFSSNISMKTEN [REB1 C-terminal 12 aa]
protein stability index [1]: 0.7171 ± 0.0057
protein stability index (genetic background: wild type): 0.7373 ± 0.0014

VVPAVLFAFLLV [YDL118W C-terminal 12 aa]
protein stability index [1]: 0.446 ± 0.0098
protein stability index (genetic background: wild type): 0.4 ± 0.0053

HNLHSYEKRLYN [IMD4 C-terminal 12 aa]
protein stability index [1]: 0.702 ± 0.025
protein stability index (genetic background: wild type): 0.672 ± 0.013

AAEAKEHMQEAN [TIF34 C-terminal 12 aa]
protein stability index [1]: 0.732 ± 0.062
protein stability index (genetic background: wild type): 0.69 ± 0.059

ERDTTTKPSKRR [KEL3 C-terminal 12 aa]
protein stability index [1]: 0.7092 ± 0.0049
protein stability index (genetic background: wild type): 0.698 ± 0.013

IDFLVEEATLNE [YAP3 C-terminal 12 aa]
protein stability index [1]: 0.70065 ± 9.1e-05
protein stability index (genetic background: wild type): 0.673 ± 0.032

RKQAHELRPKSE [SPO7 C-terminal 12 aa]
protein stability index [1]: 0.77 ± 0.024
protein stability index (genetic background: wild type): 0.79 ± 0.019

PEAEGPTVEEVD [SSA1 C-terminal 12 aa]
protein stability index [1]: 0.703 ± 0.02
protein stability index (genetic background: wild type): 0.694 ± 0.019

GQHTKTTGRRRA [RPS18A C-terminal 12 aa]
protein stability index [1]: 0.6995 ± 0.0039
protein stability index (genetic background: wild type): 0.686 ± 0.032

ESTGHVDFGQNR [OTU1 C-terminal 12 aa]
protein stability index [1]: 0.7 ± 0.012
protein stability index (genetic background: wild type): 0.703 ± 0.012

VMGQFLPIFEMD [GSM1 C-terminal 12 aa]
protein stability index [1]: 0.724 ± 0.031
protein stability index (genetic background: wild type): 0.713 ± 0.0046

SEKIYRRSLFKQ [YKL165C-A C-terminal 12 aa]
protein stability index [1]: 0.708 ± 0.03
protein stability index (genetic background: wild type): 0.686 ± 0.044
